Patent US20240116985A1 (published 2024)
Starred links: 1 amine or outer side, 2 acyl side, 3 side chain; linkers in the order of their positions; H or OH if unused. Positions of bridges follow the written chain, without caps; N, C: chain ends. Non-standard residues stand in square brackets, D forms with d. Primed or numbered codes have the meaning given here. B5(16) = 2-amino-2-(pent-4-en-1-yl)hept-6-enoic acid = 2,2-bis(4-pentenyl)glycine (stitching residue), C=CCCCC(CCCC=C)(N[*:1])C(=O)[*:2]; B5(5) = 2,2-bis(4-pentenyl)glycine, 2-amino-2-(pent-4-en-1-yl)hept-6-enoic acid (stitching residue), C=CCCCC(CCCC=C)(N[*:1])C(=O)[*:2]; TfeGA = (S)-2-amino-3-((carboxymethyl)(2,2,2-trifluoroethyl)amino)propanoic acid, O=C([C@H](CN(CC(=O)[*:3])CC(F)(F)F)N[*:1])[*:2]; Bta = N[C@@H](Cc1csc2ccccc12)C(=O)O; αAllylPro = C=CC[C@@]1(C(=O)O)CCCN1; tBuAla = CC(C)(C)C[C@H](N)C(=O)O; 3Thi = N[C@@H](Cc1ccsc1)C(=O)O; Cha = N[C@@H](CC1CCCCC1)C(=O)O; S8 = C=CCCCCCC[C@](C)(N)C(=O)O

Legend:
Assay in all cases: cell-based or functional assay
[1] = target: T1, B-cat-Halo (beta-catenin HaloTag NanoBRET construct expressed in HEK293 cells) (UniProt P35222 1-781)
T1 sequence (looked up): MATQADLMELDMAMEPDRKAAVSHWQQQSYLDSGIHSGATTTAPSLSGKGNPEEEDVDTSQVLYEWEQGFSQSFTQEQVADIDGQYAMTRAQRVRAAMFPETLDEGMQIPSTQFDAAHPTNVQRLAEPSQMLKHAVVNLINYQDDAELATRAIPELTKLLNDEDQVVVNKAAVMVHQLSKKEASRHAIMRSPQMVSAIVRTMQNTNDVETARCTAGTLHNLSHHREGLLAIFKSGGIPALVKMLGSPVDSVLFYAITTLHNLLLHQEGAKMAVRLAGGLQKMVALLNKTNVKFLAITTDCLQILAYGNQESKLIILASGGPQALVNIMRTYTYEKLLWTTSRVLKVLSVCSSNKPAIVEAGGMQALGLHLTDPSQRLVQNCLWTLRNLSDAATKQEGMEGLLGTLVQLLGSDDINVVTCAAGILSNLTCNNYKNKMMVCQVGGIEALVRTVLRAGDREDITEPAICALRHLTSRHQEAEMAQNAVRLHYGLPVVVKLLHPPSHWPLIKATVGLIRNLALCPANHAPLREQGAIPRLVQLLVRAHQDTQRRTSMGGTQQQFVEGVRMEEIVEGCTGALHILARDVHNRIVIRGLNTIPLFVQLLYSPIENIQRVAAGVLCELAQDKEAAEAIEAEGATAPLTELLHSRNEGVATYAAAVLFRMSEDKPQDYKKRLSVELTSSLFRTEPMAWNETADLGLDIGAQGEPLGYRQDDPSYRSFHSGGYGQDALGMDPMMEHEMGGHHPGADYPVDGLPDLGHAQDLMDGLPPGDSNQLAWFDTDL

B-cat-Halo = B-cat-Halo (UniProt P35222 1-781)
[2] = target: T2, B-cat-Halo (beta-catenin HaloTag fusion expressed in HEK293 cells) (UniProt P35222 1-781)
T2 sequence (looked up): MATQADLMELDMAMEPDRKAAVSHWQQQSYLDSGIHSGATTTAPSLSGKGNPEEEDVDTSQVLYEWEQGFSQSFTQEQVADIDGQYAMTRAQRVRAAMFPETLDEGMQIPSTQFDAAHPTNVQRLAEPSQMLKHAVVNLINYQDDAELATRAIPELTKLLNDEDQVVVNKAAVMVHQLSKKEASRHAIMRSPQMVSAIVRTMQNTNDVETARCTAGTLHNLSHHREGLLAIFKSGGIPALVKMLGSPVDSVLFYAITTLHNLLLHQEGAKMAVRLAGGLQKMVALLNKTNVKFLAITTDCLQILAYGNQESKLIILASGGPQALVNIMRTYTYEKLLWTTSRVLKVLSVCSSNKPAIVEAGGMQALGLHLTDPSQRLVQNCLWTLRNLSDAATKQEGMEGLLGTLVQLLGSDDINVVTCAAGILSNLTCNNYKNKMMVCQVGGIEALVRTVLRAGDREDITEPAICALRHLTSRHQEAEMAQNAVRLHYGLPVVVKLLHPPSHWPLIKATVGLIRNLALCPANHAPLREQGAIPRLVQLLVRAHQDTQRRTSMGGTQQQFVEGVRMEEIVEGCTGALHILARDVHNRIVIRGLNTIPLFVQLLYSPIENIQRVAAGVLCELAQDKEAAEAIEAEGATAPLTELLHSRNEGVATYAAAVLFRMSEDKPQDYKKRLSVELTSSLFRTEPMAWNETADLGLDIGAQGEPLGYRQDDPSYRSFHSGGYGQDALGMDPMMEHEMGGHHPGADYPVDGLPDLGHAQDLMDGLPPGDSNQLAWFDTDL

In the case of Ac-[αAllylPro]D[tBuAla][B5(5)]D[TfeGA]AAFN[S8]F[Bta]Q-NH2 (staple 1-4, 4-11) [I-703], the “NanoBRET Abs IC50” value [1] is reported as 11.9 µM.

With Ac-[αAllylPro]D[tBuAla][B5(5)]DDAAFN[S8][3Thi][Bta]Q-NH2 (staple 1-4, 4-11) [I-679] the “NanoBRET % inh @ 10 uM” value (B-cat-Halo) was 44.8%.

Ac-[αAllylPro]D[Cha][B5(16)]DEAAFN[S8]F[Bta]Q-NH2 (staple 1-4, 4-11; also: later-eluting staple isomer composition) [I-620] was tested, and the “NanoBRET IC50” value [2] was 5.8 µM.
